# Data: patent US12344663B2, “Anti-C3 antibodies and antigen-binding fragments thereof and their uses for treating eye or ocular diseases” (CDR-Life AG, priority 2021, dated 2025)
# Tests used:
# [1] = 40 nmol IVT, scFv versus Fab (ranibizumab); in words; cited from earlier work
# [2] = Thermal stability by differential scanning fluorimetry (DSF); assay type: physicochemical; settings: for Melting temperature: DSF, Example 4
# From the text: Differential scanning fluorimetry (DSF) measures protein unfolding by monitory changes in fluorescence as a function of temperature.
# The temperature of protein unfolding (Tm) is tied to the stability of antibodies, specifically to aggregation during storage and long-term stability of the therapeutic product. The thermal transitions of monoclonal antibody CH2 and CH3 domains are typically invariant for different antibodies within an isotype, with the CH2 domain unfolding prior to the CH3 domain.
# human C3 = human C3 (Homo sapiens, UniProt P01024); test: SPR (Biacore T100) binding to human C3; settings: C3 and C3b; in words
# Chain of human C3 (P01024 23-1663): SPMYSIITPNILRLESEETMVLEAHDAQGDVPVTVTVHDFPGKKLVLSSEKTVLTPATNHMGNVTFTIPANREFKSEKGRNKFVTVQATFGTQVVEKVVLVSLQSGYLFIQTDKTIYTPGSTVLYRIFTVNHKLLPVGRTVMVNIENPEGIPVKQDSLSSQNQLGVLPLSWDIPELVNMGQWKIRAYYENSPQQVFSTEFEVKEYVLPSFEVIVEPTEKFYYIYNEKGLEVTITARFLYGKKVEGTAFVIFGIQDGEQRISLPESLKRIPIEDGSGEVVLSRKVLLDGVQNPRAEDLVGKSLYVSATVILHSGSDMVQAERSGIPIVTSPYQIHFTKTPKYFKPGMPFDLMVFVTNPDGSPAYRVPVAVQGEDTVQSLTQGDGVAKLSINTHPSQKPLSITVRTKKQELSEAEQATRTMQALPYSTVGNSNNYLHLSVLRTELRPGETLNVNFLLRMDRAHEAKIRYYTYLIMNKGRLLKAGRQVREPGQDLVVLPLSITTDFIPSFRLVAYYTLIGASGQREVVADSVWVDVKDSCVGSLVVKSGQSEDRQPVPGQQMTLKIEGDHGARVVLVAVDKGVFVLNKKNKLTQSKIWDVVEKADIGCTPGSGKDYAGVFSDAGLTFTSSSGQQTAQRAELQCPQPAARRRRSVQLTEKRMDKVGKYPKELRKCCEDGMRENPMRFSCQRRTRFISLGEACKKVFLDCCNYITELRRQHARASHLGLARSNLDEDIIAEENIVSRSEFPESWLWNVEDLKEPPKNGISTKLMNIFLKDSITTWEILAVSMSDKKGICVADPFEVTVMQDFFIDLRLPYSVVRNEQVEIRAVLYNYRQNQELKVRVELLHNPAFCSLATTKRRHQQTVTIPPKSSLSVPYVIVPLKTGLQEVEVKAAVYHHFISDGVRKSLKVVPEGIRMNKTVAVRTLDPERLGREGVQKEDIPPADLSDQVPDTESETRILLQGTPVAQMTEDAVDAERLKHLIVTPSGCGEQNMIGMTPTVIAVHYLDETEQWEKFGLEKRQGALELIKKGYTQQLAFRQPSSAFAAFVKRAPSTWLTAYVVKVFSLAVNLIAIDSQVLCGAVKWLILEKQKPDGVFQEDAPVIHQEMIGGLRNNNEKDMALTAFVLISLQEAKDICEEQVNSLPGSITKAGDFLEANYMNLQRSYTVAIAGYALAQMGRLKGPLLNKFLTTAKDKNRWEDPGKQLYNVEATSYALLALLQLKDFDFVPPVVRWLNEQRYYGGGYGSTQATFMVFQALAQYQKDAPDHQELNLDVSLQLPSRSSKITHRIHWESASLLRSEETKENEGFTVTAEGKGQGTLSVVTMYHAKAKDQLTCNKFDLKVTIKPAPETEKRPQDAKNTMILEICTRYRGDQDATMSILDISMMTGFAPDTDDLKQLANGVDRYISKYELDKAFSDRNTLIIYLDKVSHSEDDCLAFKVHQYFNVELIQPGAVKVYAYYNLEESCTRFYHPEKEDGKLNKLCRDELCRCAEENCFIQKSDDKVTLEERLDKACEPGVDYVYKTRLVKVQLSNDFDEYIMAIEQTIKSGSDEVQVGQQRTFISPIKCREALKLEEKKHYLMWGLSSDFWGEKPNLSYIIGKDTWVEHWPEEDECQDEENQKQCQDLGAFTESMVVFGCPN
# Protocol: The kinetic parameters of the candidates are determined using a surface plasmon resonance (SPR) and Biacore T100 device. C3 and different variants thereof (Table 19) are immobilized as a ligand on a HC30M SPR sensor chip (XanTec bionanalytics, Germany) using EDC/[…] linking chemistry. Five increasing concentrations of each molecule (analyte) are consecutively injected using the single cycle kinetics (SCK) mode to determine the kinetic parameters. Regeneration between the candidates is done with 10 mM glycine*HCl, 2 M NaCl, pH 3.5. The data is fitted to a 1:1 Langmuir binding model and the kinetic parameters of on-rate (ka), off-rate (kd), and affinity […] were determined.
# Classical Pathway = test: WEISLAB Complement system Screen, classical pathway MAC (C5b-C9) formation; assay type: biochemical, human; settings: single dose of 2 μM; CP-dependent MAC formation
# Protocol: (§1) To identify antibodies that block all 3 complement pathways, antibodies are screened using an enzyme immunoassay for the qualitative determination of functional classical, lectin and alternative complement pathways in human serum using the WEISLAB® Complement system Screen (Svar Life Science AB, Malmö, Sweden).
# (§2) To monitor inhibition of the complement system in human serum, the scFv of the invention or the comparator molecules are tested using an enzyme immunoassay for the qualitative determination of functional classical, lectin and alternative complement pathways in human serum using the WEISLAB® Complement system Screen (Svar Life Science AB, Malmö, Sweden), following the supplier's instructions. The amount of C5b-C9 neoantigen generated is proportional to the functional activity of complement pathways. The scFv of the invention and the comparator molecules are tested in a concentration response curve and the IC50 for the inhibition is calculated using the GraphPadPrism software and a non-linear, 4 parameters curve regression.
# Alternative Pathway = test: WEISLAB Complement system Screen, alternative pathway MAC (C5b-C9) formation; assay type: biochemical, human; settings: single dose of 2 μM; AP-dependent MAC formation
# Protocol: as §1, §2
# Lectin Pathway = test: WEISLAB Complement system Screen, lectin pathway MAC (C5b-C9) formation; assay type: biochemical, human; settings: single dose of 2 μM; LP-dependent MAC formation
# Protocol: as §1, §2
# [3] = Concentration-dependent monomeric stability study at 37° C.; assay type: physicochemical; settings: for Loss in monomeric content after 2 weeks of incubation at 37° C.: Clone XIII at 150 mg/mL, Clone XIV at 50 mg/mL; for Loss in monomeric content with concentration: Clone XIII concentrated to 150 mg/mL, Clone XIV to 50 mg/mL
Molecule,Loss in monomeric content after 2 weeks of incubation at 37° C. [3] [%],Loss in monomeric content with concentration [3],Melting temperature [2] [°C],other results
"Beovu: comparator in EpiMatrix table; brolucizumab is a scFv (antibody, chains of the INN, looked up, V domains shown, scFv, brolucizumab is a scFv) VH: EVQLVESGGGLVQPGGSLRLSCTASGFSLTDYYYMTWVRQAPGKGLEWVGFIDPDDDPYYATWAKGRFTISRDNSKNTLYLQMNSLRAEDTAVYYCAGGDHNSGWGLDIWGQGTLVTVSS VL: EIVMTQSPSTLSASVGDRVIITCQASEIIHSWLAWYQQKPGKAPKLLIYLASTLASGVPSRFSGSGSGAEFTLTISSLQPDDFATYYCQNVYLASTNGANFGQGTKLTVL",–,–,–,Retinal penetration after equimolar intravitreal injection [1]: improved retinal penetration
"Clone VI: Clone V with additional rabbit residues replaced by germline, SEQ ID NO: 34 (protein, ScFv) scFv: MQLVLTQSPSASASLGASVKLTCTLSSAHKTYTIDWYQQQPEKGPRYLMQLKSDGSYTKGTGVPDRFSGSSSGAERYLTISSLQSEDEADYYCGTDYGGGYVFGGGTKLTVLGGGGGSGGGGSGGGGSGGGGSQVQVVESGGGSVQPGRSLRLSCAASGFSLYNYAMNWVRQAPGKGLEWIGIINTDGNTNYASWAKGRFTISTDNSKNTLYLQMNSLRAEDTASYYCARAVGYHHHALDPWGQGTSVTVSS",–,–,–,Increase of thermal stability of the construct ([2]; versus preceding variant): 11.7 °C; Binding affinity to C3 and C3b compared to parental molecule Clone IV (human C3): comparable to the parental molecule
"Clone IV: rabbit-derived parental anti-C3 antibody, SEQ ID NO: 32 (protein, scFv) QSVKESGGRLVTPGTPLTLTCTVSGFSLYNYAMNWVRQAPGKGLEWIGIINTDGNTNYASWAKGRFTISTTSSTTVDLKITSPTTEDTATYFCPRAVGYHHHALDPWGPGTLVTVSSGGGGSGGGGSGGGGSGGGGASELVLTQSPSVSAALGASAKLTCTLSSAHKTYTIDWYQQQQGEAPRYLMQLKSDGSYTKGTGVPDRFSGSSSGADRYLIIPSVQADDEADYYCGTDYGGGYVFGGGTQLTVTG",–,–,–,Residual classical pathway complement activity with Clone IV (Classical Pathway): 2.9 ± 0.0%; Residual alternative pathway complement activity with Clone IV [%] (Alternative Pathway): −0.1 ± 0.2%; Residual lectin pathway complement activity with Clone IV [%] (Lectin Pathway): 0.5 ± 0.9%
"Clone XIII: scFv combining affinity maturation substitutions and disulfide bond stabilization, SEQ ID NO: 41 (protein, ScFv) scFv: MQLVLTQSPSASASLGASVKLTCTLSSAHKTYTIDWYQQQPEKCPRYLMQLKSEGSYTKGTGVPDRFSGSSSGAERYLTISSLQSEDEADYYCGTEGVGGYVFGGGTKLTVLGGGGGSGGGGSGGGGSGGGGSQVQVVESGGGSVQPGRSLRLSCAVSGFSLYNYAMNWVRQAPGKGLEWIGIINVGGGTNYASWAKGRFTISTDNSKNTVYLQMNSLRAEDTASYYCARAVGYHHARLDPWGCGTSVTVSS",2.2,no loss,67.7,–
"Clone XIV: scFv combining affinity maturation substitutions and disulfide bond stabilization, SEQ ID NO: 42 (protein, ScFv) scFv: MQLVLTQSPSASASLGASVKLTCTLSSAHKTYTIDWYQQQPEKCPRYLMQLKSEGSYTKGTGVPDRFSGSSSGAERYLTISSLQSEDEADYYCGTEGVGGYVFGGGTKLTVLGGGGGSGGGGSGGGGSGGGGSQVQVVESGGGSVQPGRSLRLSCAVSGFSLYNYAMNWVRQAPGKGLEWIGIINVGGGTNYASWAKGRFTISTDNSKNTVYLQMNSLRAEDTASYYCARAVGYHHSRLDPWGCGTSVTVSS",2.3,1.6%,67.2,–
